Kd data for 2 molecules are collected here from paper PMC6283471.

Assay [1] concerns the target CCR5 on HEK-R5 cells (HEK 293T cells stably expressing CCR5) (UniProt P51681). In words: radioligand binding.
Assay [2] deals with FLAG/SNAP-tagged wild-type (WT) CCR5, P51681. In words: radioligand binding. The note with it: remark: other sources report otherwise.

A word on the Kd: it is the constant that tells how readily two partners part at equilibrium. A low value points to higher affinity. In assay [1], “gp120 Bx08-sCD4 complex (from UniProt P01730)” had a Kd of 14.1 nM.

B1: 125I-CCL3, P10147 24-92 (ligand)
chain: SLAADTPTACCFSYTSRQIPQNFIADYFETSSQCSKPGVIFLTKRSRQVCADPSEEWVQKYVSDLELSA
modifications: ends and bridges not checked; also: 125I-labelled, site not given here
In assay [2], B1 showed a Kd of 0.36 nM.
